What all share (details): both partners purified
Experiment [1] has as its target T1, recombinant gH/gL/UL128/UL130/UL131A pentamer (wild type) (Human cytomegalovirus VR1814 (gH strain …, UniProt Q6SW67;F5HCH8;PDB)).
T1 construct: also called CMV pentamer; HCMV pentamer complex; source: HEK293F, cotransfected with gH, gL, UL128, UL130 and UL131A plasmids, purified (Ni-NTA, SEC); not shown: His6, C-terminal, kept; copies: + + + +
Nature of the experiment: SPR; Biacore X100, CM5 chip, RT, 1:1 binding model; methods: antibody (4 μg/mL) captured by anti-human Fc IgG to about 100 RU, pentamer or trimer in five 2-fold dilutions injected at 30 μL/min, 90 s association, 600 s dissociation (the legend of Fig. 5 tells the reverse orientation).
T1 sequence (F5HCH8 whole entry, looked up, chain 1 of 2): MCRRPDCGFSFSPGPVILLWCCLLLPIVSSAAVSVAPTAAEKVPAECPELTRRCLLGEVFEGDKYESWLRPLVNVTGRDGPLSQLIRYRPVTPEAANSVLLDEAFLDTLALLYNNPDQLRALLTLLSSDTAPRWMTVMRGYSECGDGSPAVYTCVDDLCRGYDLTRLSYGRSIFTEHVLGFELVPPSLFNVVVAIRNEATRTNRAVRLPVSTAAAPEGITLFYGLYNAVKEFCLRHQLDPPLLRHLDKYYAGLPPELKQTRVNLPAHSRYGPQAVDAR
T1 sequence (Q6SW67 whole entry, looked up, chain 2 of 2): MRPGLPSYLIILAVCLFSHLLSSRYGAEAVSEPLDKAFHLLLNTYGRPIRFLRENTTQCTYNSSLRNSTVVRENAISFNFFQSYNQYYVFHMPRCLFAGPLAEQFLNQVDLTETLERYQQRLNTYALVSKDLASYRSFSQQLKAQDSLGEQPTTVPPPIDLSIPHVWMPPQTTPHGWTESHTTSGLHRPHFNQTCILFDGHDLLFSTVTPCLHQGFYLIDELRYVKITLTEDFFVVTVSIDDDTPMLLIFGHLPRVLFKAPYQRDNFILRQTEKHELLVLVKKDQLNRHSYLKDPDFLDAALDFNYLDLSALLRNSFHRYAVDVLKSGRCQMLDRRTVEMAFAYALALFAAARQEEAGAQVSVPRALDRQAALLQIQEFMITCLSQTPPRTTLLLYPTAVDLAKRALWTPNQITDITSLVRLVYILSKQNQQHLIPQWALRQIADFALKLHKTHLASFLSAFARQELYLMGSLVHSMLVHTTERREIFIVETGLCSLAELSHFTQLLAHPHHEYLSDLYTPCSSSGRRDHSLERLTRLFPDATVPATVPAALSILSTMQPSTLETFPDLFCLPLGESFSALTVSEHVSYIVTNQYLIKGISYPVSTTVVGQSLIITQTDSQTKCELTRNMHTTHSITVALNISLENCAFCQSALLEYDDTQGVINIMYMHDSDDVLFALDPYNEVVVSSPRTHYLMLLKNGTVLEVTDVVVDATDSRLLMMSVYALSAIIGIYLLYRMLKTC

The target in experiment [2] is T1, recombinant gH/gL/UL128/UL130/UL131A …. Kind of experiment: ELISA; pentamer, trimer or pentamer mutant coated at 100 ng/well (carbonate bicarbonate buffer pH 7.4, overnight 4°C); purified antibodies in eight serial 3-fold dilutions from 1 μg/mL, 37°C 1 h; detected with goat anti-human IgG (H+L)-HRP. For orientation: An ELISA detects its analyte on a solid surface through an enzyme-linked reagent.

The target of experiment [3] is T2, recombinant gH/gL/UL128/UL130/UL131A pentamer (wild type) (Human cytomegalovirus VR1814 (gH strain …, UniProt Q6SW67;F5HCH8;PDB)).
T2 construct: also called CMV pentamer; HCMV pentamer complex; source: HEK293F, cotransfected with gH, gL, UL128, UL130 and UL131A plasmids, purified (Ni-NTA, SEC); not shown: His6, C-terminal, kept; copies: + + + +
Nature of the experiment: SPR; Biacore X100, CM5 chip, RT, 1:1 binding model; methods: antibody (4 μg/mL) captured by anti-human Fc IgG to about 100 RU, pentamer or trimer in five 2-fold dilutions injected at 30 μL/min, 90 s association, 600 s dissociation (the legend of Fig. 5 tells the reverse orientation). This is another data set of the same source. (Surface plasmon resonance follows binding to a sensor surface in real time, without labels.)
T2 sequence (F5HCH8 whole entry, looked up, chain 1 of 2): as the sequence (F5HCH8 whole entry, looked up, chain 1 of 2) above
T2 sequence (Q6SW67 whole entry, looked up, chain 2 of 2): as the sequence (Q6SW67 whole entry, looked up, chain 2 of 2) above

The target in experiment [4] is T2, recombinant gH/gL/UL128/UL130/UL131A …. The experiment is described as above. This is another data set of the same source.

B1: MAb MSL-109 (antibody, V domains shown)
VH: EEQVLESGGGLVKPGGSLRLSCAASGFTFSPYSVFWVRQAPGKGLEWVSSINSDSTYKYYADSVKGRFTISRDNAENSIFLQMNSLRAEDTAVYYCARDRSYYAFSSGSLSDYYYGLDVWGQGTLVTVSS
VL: DIVMTQSPLSLSVTPGEPASISCRSSQSLLHTNGYNYLDWYVQKPGQSPQLLIYLASNRASGVPDRFSGSGSGTDFTLKISRVETEDVGVYYCMQALQIPRTFGQGTKVEIK
notes: source: 293F cells, transient transfection, purified (protein A)
Take B1: in experiment [1], the Kd was 1.33 nM, the koff was found to be 0.00156 s⁻¹ and the kon was 1.17e+06 M⁻¹ s⁻¹.

B2: MAb 8I21 (antibody, V domains shown)
VH: LVELVESGGGVVQPGRSLRLSCAASGFTFSSDGMHWVRQSPGRGLEWVAFISSDGSTPYYADSVKGRFTISRDNSKNTLYLQMNSLRAEDTAMYFCAKDWALFRWLRTFDHWGQGTLVTVSS
VL: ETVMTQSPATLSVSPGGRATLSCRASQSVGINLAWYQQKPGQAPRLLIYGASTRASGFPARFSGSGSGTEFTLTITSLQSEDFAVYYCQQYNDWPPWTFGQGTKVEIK
notes: as for B1
For the molecule B2, the binding result in experiment [2] is given as “binds”.

B3: MAb 9I6 (antibody, V domains shown)
VH: EVQLVQSGAEVKKPGESLKISCRESGDTFPAYWIAWVRQMPGKGLEWMGIIYPIDSETTYSPSFQGQVTISADKSINTAYLQWSSLKASDSAIYYCARGTSTGLREAFHIWGQGTMVTVSS
VL: DVVMTQSPLSLAVTLGQPAYISCRSSQSLGYSDGNTYLNWFQQRPGQSPRRLIYEVSNRDSGVPDRFSGSGSGTDFTLKISRVEAEDVGTYYCMQGTHWPPMCSFGQGTKLEIK
notes: as for B1
As to B3, in experiment [3], the Kd was found to be 0.82 nM, the koff was 0.000139 s⁻¹ and the kon stood at 168000 M⁻¹ s⁻¹. For the same molecule, the Kd in experiment [4] amounted to 0.484 nM.

For orientation: Kd means the equilibrium constant for the complex coming apart. Broadly, the koff is the first-order rate constant of dissociation. The term kon denotes the rate constant with which the complex forms.

Source of the values: article PMC9784774, “Neutralization Epitopes in Trimer and Pentamer Complexes Recognized by Potent Cytomegalovirus-Neutralizing Human Monoclonal Antibodies” (Microbiology Spectrum, 2022).
